Changes are numbered by the printed parent chain.
T1: Murine APRIL (mouse, UniProt Q9D777 105-241, limits assumed)
T1 sequence (looked up): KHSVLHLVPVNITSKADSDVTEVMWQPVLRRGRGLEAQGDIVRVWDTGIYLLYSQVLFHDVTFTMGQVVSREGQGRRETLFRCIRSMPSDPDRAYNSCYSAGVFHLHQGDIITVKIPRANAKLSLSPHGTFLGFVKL

B1: TACI_d2 F78C (receptor)
chain: SLSCRKEQGKCYDHLLRDCISCASICGQHPKQCAYFCENKLR
notes: phage library variant, format as m9
B2: TACI_d2 F78E (receptor)
chain: B1 chain with C11E
notes: as for B1
B3: TACI_d2 F78N (receptor)
chain: B1 chain with C11N
notes: as for B1
B4: TACI_d2 I92F (receptor)
chain: B1 chain with C11F, I25F
notes: as for B1
B5: TACI_d2 I92M (receptor)
chain: B1 chain with C11F, I25M
notes: as for B1
B6: TACI_d2 F78Y (receptor)
chain: B1 chain with C11Y
notes: as for B1
B7: TACI_d2 R84F (receptor)
chain: B1 chain with C11F, R17F
notes: as for B1
B8: TACI_d2 I92H (receptor)
chain: B1 chain with C11F, I25H
notes: as for B1
B9: TACI_d2 I92C (receptor)
chain: B1 chain with C11F, I25C
notes: as for B1
B10: TACI_d2 F78M (receptor)
chain: B1 chain with C11M
notes: as for B1
B11: TACI_d2 R84C (receptor)
chain: B1 chain with C11F, R17C
notes: as for B1
B12: TACI_d2 I92P (receptor)
chain: B1 chain with C11F, I25P
notes: as for B1
B13: TACI_d2 I92R (receptor)
chain: B1 chain with C11F, I25R
notes: as for B1
B14: TACI_d2 I92D (receptor)
chain: B1 chain with C11F, I25D
notes: as for B1
B15: TACI_d2 I92S (receptor)
chain: B1 chain with C11F, I25S
notes: as for B1
B16: TACI_d2 F78H (receptor)
chain: B1 chain with C11H
notes: as for B1
B17: TACI_d2 I92W (receptor)
chain: B1 chain with C11F, I25W
notes: as for B1
B18: TACI_d2 I92N (receptor)
chain: B1 chain with C11F, I25N
notes: as for B1
B19: TACI_d2 R84E (receptor)
chain: B1 chain with C11F, R17E
notes: as for B1

Each binder was assayed against human BAFF (human, UniProt Q9Y275 82-285, limits assumed) (assay: NNS library, phage display;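 further: ligand versus display occurrence-to-degeneracy ratio and higher means enriched by binding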).
Protocol: (§1) This new phage library was subjected to sorting against either BAFF, APRIL or the display target antibody. After 3 rounds of sorting, approximately 48 clones were picked from each selection and the DNA sequences of the phage clones were determined. […] The normalized F′ value corrects for display bias and is calculated as the percent occurrence to percent degeneracy ratio for ligand selection divided by the percent occurrence to percent degeneracy ratio for display efficiency. Percent occurrence is calculated by dividing the number of times a particular amino acid appeared at a particular position by the total number of amino acids sequenced at that position followed by multiplying by 100. Percent degeneracy is calculated by dividing the degeneracy in code for a particular amino acid divided by the total degeneracy possible at that position followed by multiplying by 100 (e.g., if only A, G and I were selected, total degeneracy possible would be 5).

Sequence of human BAFF (Q9Y275 82-285 limits assumed): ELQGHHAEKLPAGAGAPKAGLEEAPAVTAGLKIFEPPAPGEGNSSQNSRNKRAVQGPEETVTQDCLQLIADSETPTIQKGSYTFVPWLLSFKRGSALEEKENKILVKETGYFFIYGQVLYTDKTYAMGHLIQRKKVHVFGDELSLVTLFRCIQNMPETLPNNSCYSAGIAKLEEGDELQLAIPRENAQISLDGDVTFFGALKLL

Row | Binder | F' BAFF
1 | B1 | 0
2 | B2 | 5
3 | B3 | 0
4 | B4 | 0
5 | B5 | 0
6 | B6 | 41
7 | B7 | 7
8 | B8 | 0
9 | B9 | 0
10 | B10 | 1
11 | B11 | 0
12 | B12 | 0
13 | B13 | 0
14 | B14 | 0
15 | B15 | 0
16 | B16 | 0
17 | B17 | 0
18 | B18 | 0
19 | B19 | 0

What follows are binders tested against T1, Murine APRIL (assay: NNS library, phage display;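 further: ligand versus display occurrence-to-degeneracy ratio and higher means enriched by binding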).
Protocol: as §1

Row | Binder | F' APRIL
20 | B1 | 0
21 | B2 | 0
22 | B3 | 0
23 | B4 | 0
24 | B5 | 0
25 | B6 | 61
26 | B7 | 9
27 | B8 | 0
28 | B9 | 0
29 | B10 | 0
30 | B11 | 0
31 | B12 | 0
32 | B13 | 0
33 | B14 | 0
34 | B15 | 0
35 | B16 | 0
36 | B17 | 0
37 | B18 | 0
38 | B19 | 3
